Experimental data as given in patent US8546083B2, “Molecular accessibility assay” (University of Vermont, priority 2007, dated 2013).

Legend:
[1] = Fluorescence of DAPI binding to double stranded DNA; conditions: 50 nM double stranded DNA, 100 nM DAPI, 10 mM Tris-HCl pH 8.0, 50 mM NaCl, 5 minutes room temperature
Description: (§1) For gel-based substrates, completed reactions were mixed with a dye-free SDS loading buffer (50 mM Tris-HCl (pH 6.8), 100 mM dithiothreitol, 4% SDS, 10% glycerol), heated to 90° C. for 5 minutes, separated by 12% SDS-PAGE, and visualized by PhosphorImager analysis (Bio-Rad Molecular Imager FX) (Bio-Rad Laboratories, Hercules, Calif.). For all other substrates, an equal volume of 200 nM DAPI in 10 mM Tris-HCl (pH 8.0) and 50 mM NaCl was added and incubated for 5 minutes at room temperature prior to fluorescence detection. Final concentrations of the fluorescence effecting molecules at the time of detection in these experiments were 100 nM DAPI, 50 nM substrate, and 25-800 nM enzyme.
(§2) Fluorescence readings were made on a Synergy HT Multi-Detection Microplate Reader (BIO-TEK) using a tungsten-halogen lamp and 360/40 bandpass excitation filter in conjunction with a 460/40 emission filter. Corning Half Area, NBS treated (Nonbinding Surface), Black, 96-well Microplates plates (Corning #3686) were used for all DAPI-based experiments. The combination of enzymes, DNA, and DAPI were all shown to contribute linearly to changes in the overall fluorescence based on the range of concentrations used; there was therefore no need to correct for the inner filter effect.
Each of the 4L, 5L, 5R, and N5R substrates, along with their non-damaged counterparts, were initially tested for their ability to associate with DAPI and thereby affect the detected fluorescence. […] In the absence of DNA, there was only a small increase in fluorescence from the addition of DAPI, as would be expected. The differences in fluorescence for each of the DAPI bound substrates are presumably due to both, sequence context and experimental variations in DNA concentration. For example, the 4L sequence is expected to have a lower total fluorescence due to the importance of the 3′ nucleotide following the 5′-AATT-3′ binding sequence in regards to fluorescence intensity (38). Due to the fact that the molecular accessibility assay is based on relative fluorescence, these differences are inconsequential.

4L substrate = assay: DAPI molecular accessibility assay, active fraction determination, 4L substrate; format: biochemical; conditions: for activity (100*α): 100 nM 4L substrate, 50 mM sodium borohydride; for active fraction / calculated α value: 4L sequence; for active fraction: NaBH4 and NaCNBH3
Description: (§3) Oligonucleotide substrates were purchased from Midland Certified Reagent Co. (Midland, Tex.) and were PAGE purified prior to use. All gel-based comparisons were performed with the following double stranded substrate: (35DHU) 5′-TET-tgtcaatagcaagnggagaagtcaatcgtgagtct-3′ (SEQ ID NO:1) where TET represents the fluorescent label 6-tetrachlorofluorescein and n=5,6-dihydrouracil (DHU). Molecular accessibility DAPI-based experiments were performed with the following double-stranded substrates: (4L) 5′-gccccgccaattnccgccgccgcc-3′ (SEQ ID NO:2), (5L) 5′-gccccgccaattcnccgccgccgcc-3′(SEQ ID NO:3), (5R) 5′-gccccgccgccccgccnaattccgccgccgcc-3′ (SEQ ID NO:4), and (N5R) 5′-gccccgccgccccgccncaattccgccgccgcc-3′ (SEQ ID NO:5) where n=either DHU for damaged substrates or cytosine for non-damaged controls. All complementary strands contained a G residue across from DHU (or across from the cytosine in controls—e.g. Watson-Crick base pairing) and were annealed in 50 mM Tris-HCl (pH 8.0), 50 mM NaCl by heating to 94° C. for 2 minutes and slowly cooling to 4° C. over the period of 1 hour in a Perkin Elmer DNA Thermal Cycler 480. In each case the ratio of damaged to complementary strand during annealing was 1:1.1. Note that the DAPI-based oligonucleotides all differ in location of the AT-rich region in relation to the damaged base.
(§4) EcoNth, EcoFpg, EcoNei, and NEIL1 were incubated for 30 minutes at 37° C. with 100 nM DHU:G-containing substrates at final concentrations of 50, 100, 200, 400, 800, 1200, or 1600 nM, in the presence of either 50 or 100 mM sodium borohydride (NaBH4) or sodium cyanoborohydride (NaCNBH3), as described in the Figures. Borohydride compounds were dissolved fresh for each independent experiment (one substrate and series of enzyme dilutions) as 1.25× stocks in Milli-Q water. Reactions were initiated by simultaneous addition of enzyme and borohydride solution to annealed substrates utilizing separate multi-pipettes in a 96-well format to a final volume of 100 μL. Except for EcoFpg trapping with sodium cyanoborohydride, the final buffer for each reaction contained 10 mM Tris-HCl (pH 8.0), 60 mM Na^+, and either 50 mM BH4^− or CNBH3^−. In the former case, the final buffer contained 10 mM Tris-HCl (pH 8.0), 110 mM Na^+, and 100 mM CNBH3^−.
as §1, §2
Given a sufficiently high concentration of trapping reagent, and a sufficiently long incubation time, the quantity of ES complex is related to the quantity of total enzyme added, ET, and total substrate added, ST, by the equation: ES=min(αET, βST) where α is the active enzyme fraction, P is the active substrate fraction (fraction cleavable), and min is the minimum function. […]

5L substrate = assay: DAPI molecular accessibility assay, active fraction determination, 5L substrate; format: biochemical; conditions: 5L sequence, NaBH4 and NaCNBH3
Description: (§5) Oligonucleotide substrates were purchased from Midland Certified Reagent Co. (Midland, Tex.) and were PAGE purified prior to use. All gel-based comparisons were performed with the following double stranded substrate: (35DHU) 5′-TET-tgtcaatagcaagnggagaagtcaatcgtgagtct-3′ (SEQ ID NO:1) where TET represents the fluorescent label 6-tetrachlorofluorescein and n=5,6-dihydrouracil (DHU). […]
as §1
(§6) Fluorescence readings were made on a Synergy HT Multi-Detection Microplate Reader (BIO-TEK) using a tungsten-halogen lamp and 360/40 bandpass excitation filter in conjunction with a 460/40 emission filter. […]

N5R substrate = assay: DAPI molecular accessibility assay, active fraction determination, N5R substrate; format: biochemical; conditions: N5R sequence; for calculated α value: NaBH4 and NaCNBH3
Description: as §3
EcoNth, EcoFpg, EcoNei, and NEIL1 were incubated for 30 minutes at 37° C. with 100 nM DHU:G-containing substrates at final concentrations of 50, 100, 200, 400, 800, 1200, or 1600 nM, in the presence of either 50 or 100 mM sodium borohydride (NaBH4) or sodium cyanoborohydride (NaCNBH3), as described in the Figures. […]
as §1
as §2, with “Corning Half Area, NBS treated (Nonbinding Surface), Black, 96-well Microplates plates (Corning #3686) were used for all DAPI-based experiments.” left out, “effect. […]” for “effect.”

35DHU substrate = assay: Gel-based Schiff base trapping assay (SDS-PAGE, PhosphorImager), active fraction determination; format: biochemical; conditions: for α value (active enzyme fraction): 100 nM 35DHU; for active fraction: gel-based, from α values with NaBH4 and NaCNBH3
Description: as §3, §4, §1
Given a sufficiently high concentration of trapping reagent, and a sufficiently long incubation time, the quantity of ES complex is related to the quantity of total enzyme added, ET, and total substrate added, ST, by the equation: ES=min(αET, βST) where α is the active enzyme fraction, P is the active substrate fraction (fraction cleavable), and min is the minimum function. Furthermore, holding ST constant while varying ET can be depicted graphically (FIG. 1A) where the rising slope is equivalent to α, the plateau is equivalent to ST*β, and the breakpoint is defined by the relation: ST=(α/β)ET. Therefore, by varying ET from below to well above the constant ST concentration, the active enzyme fraction can be determined by linear regression of all points falling below the ET breakpoint concentration. The decision to include or exclude a given point pre-breakpoint is simply made so as to minimize the root-mean squared deviation from both the pre-breakpoint regression and the post-breakpoint best-fit line with a slope of zero. […]

5R substrate = assay: DAPI molecular accessibility assay, active fraction determination, 5R substrate; format: biochemical; conditions: 5R sequence, NaBH4 and NaCNBH3
Description: as §5, §1, §6

[2] = NaCNBH3 (50 mM EcoNth, 100 mM EcoFpg), 30 minutes 37° C.
[3] = EcoNth range stated jointly for 4L, 5L, 5R

5′-gccccgccaattcnccgccgccgcc-3′ [5L]
FI (Fluorescence Intensity) [1]: 65.9 ± 2.6 x10^−3

5′-gccccgccaattnccgccgccgcc-3′ [4L]
FI (Fluorescence Intensity) [1]: 55.2 ± 2.8 x10^−3

5′-gccccgccgccccgccnaattccgccgccgcc-3′ [5R]
FI (Fluorescence Intensity) [1]: 69.5 ± 2.9 x10^−3

5′-gccccgccgccccgccncaattccgccgccgcc-3′ [N5R]
FI (Fluorescence Intensity) [1]: 60.7 ± 3.0 x10^−3

NEIL1: human ortholog of endonuclease VIII, recent purification with good activity
activity (100*α) (4L substrate): over 50%

B1: EcoNei: Escherichia coli endonuclease VIII, purification known to have little activity (protein, UniProt P50465 2-263, looked up)
Endonuclease 8: PEGPEIRRAADNLEAAIKGKPLTDVWFAFPQLKPYQSQLIGQHVTHVETRGKALLTHFSNDLTLYSHNQLYGVWRVVDTGEEPQTTRVLRVKLQTADKTILLYSASDIEMLTPEQLTTHPFLQRVGPDVLDPNLTPEVVKERLLSPRFRNRQFAGLLLDQAFLAGLGNYLRVEILWQVGLTGNHKAKDLNAAQLDALAHALLEIPRFSYATRGQVDENKHHGALFRFKVFHRDGEPCERCGSIIEKTTLSSRPFYWCPGCQH
activity (100*α) (4L substrate): less than 5%

B2: EcoNth: Escherichia coli endonuclease III, purified recombinant enzyme preparation (protein, UniProt P0AB83 1-211, looked up)
Endonuclease III: MNKAKRLEILTRLRENNPHPTTELNFSSPFELLIAVLLSAQATDVSVNKATAKLYPVANTPAAMLELGVEGVKTYIKTIGLYNSKAENIIKTCRILLEQHNGEVPEDRAALEALPGVGRKTANVVLNTAFGWPTIAVDTHIFRVCNRTQFAPGKNVEQVEEKLLKVVPAEFKVDCHHWLILHGRYTCIARKPRCGSCIIEDLCEYKEKVDI
active fraction (5L substrate): 19-24% | active fraction (4L substrate): 19-24% | active fraction (N5R substrate; NaBH4 (first value, figure order)): approximately 12% | calculated α value (N5R substrate): lower | active fraction (N5R substrate; NaCNBH3 (second value, figure order)): ~16% | α value (active enzyme fraction) (35DHU substrate; 50 mM NaBH4, 30 minutes 37° C.): 0.199 | α value (active enzyme fraction) (35DHU substrate; [2]): 0.206 | active fraction (35DHU substrate): approximately 20%

B3: EcoFpg: Escherichia coli formamidopyrimidine-DNA glycosylase, purified recombinant enzyme preparation (protein, UniProt P05523 2-269, looked up)
Formamidopyrimidine-DNA …: PELPEVETSRRGIEPHLVGATILHAVVRNGRLRWPVSEEIYRLSDQPVLSVQRRAKYLLLELPEGWIIIHLGMSGSLRILPEELPPEKHDHVDLVMSNGKVLRYTDPRRFGAWLWTKELEGHNVLTHLGPEPLSDDFNGEYLHQKCAKKKTAIKPWLMDNKLVVGVGNIYASESLFAAGIHPDRLASSLSLAECELLARVIKAVLLRSIEQGGTTLKDFLQSDGKPGYFAQELQVYGRKGEPCRVCGTPIVATKHAQRATFYCRQCQK
calculated α value (5L substrate; [3]): significantly lower | calculated α value (4L substrate; 50 mM NaBH4): 0.154 | calculated α value (4L substrate; 100 mM NaCNBH3): 0.136 | active fraction (4L substrate): approximately 14% | calculated α value (N5R substrate): significantly lower | active fraction (5R substrate): ~11% | calculated α value (5R substrate; [3]): slightly lower | α value (active enzyme fraction) (35DHU substrate; 50 mM NaBH4, 30 minutes 37° C.): 0.121 | α value (active enzyme fraction) (35DHU substrate; [2]): 0.147 | active fraction (35DHU substrate): approximately 13%
